Source: patent US20140087995A1 (published 2014)
Numbered stars: 1 amine (or outer) side, 2 acyl side, 3 side chain; on linkers, the order of the positions; unused ones are H or OH. Bridge positions count the residues as written; N and C are the ends. Side chains are listed from the residue outwards. Ends that are not written are not given here. * marks the point of attachment. C20 diacid = O=C(O)CCCCCCCCCCCCCCCCCCC(=O)*; γGlu = O=C(O)[C@H](CCC(=O)[*:2])N[*:1]; AEEA = NCCOCCOCC(=O)O

Experiments:
[1] = molecular target: T1, human amylin receptor (amylin 3(a) receptor: human calcitonin receptor plus RAMP-3) (human, UniProt P30988 25-474; O60896 24-148); experiment: cell-based or functional assay
T1 sequence (looked up) 1: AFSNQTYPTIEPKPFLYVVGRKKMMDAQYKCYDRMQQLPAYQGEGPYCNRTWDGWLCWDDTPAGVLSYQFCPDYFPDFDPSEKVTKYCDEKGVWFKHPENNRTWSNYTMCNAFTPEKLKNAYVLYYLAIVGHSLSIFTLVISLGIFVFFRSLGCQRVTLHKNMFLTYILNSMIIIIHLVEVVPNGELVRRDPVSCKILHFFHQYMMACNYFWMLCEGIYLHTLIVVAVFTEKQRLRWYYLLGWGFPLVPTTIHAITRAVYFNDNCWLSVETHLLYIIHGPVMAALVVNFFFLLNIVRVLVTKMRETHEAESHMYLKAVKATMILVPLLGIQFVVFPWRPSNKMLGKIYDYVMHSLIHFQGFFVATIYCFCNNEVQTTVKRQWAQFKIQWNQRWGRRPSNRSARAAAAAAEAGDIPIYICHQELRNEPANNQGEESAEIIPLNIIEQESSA
T1 sequence (looked up) 2: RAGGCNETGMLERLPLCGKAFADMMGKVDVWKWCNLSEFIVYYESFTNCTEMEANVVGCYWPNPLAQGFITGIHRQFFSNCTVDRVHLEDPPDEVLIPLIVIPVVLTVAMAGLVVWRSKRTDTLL

[2] = molecular target: T2, human calcitonin receptor (human, UniProt P30988 25-474); experiment: cell-based or functional assay
T2 sequence (looked up): T1 sequence (looked up) 1

[3] = molecular target: T1, human amylin receptor (amylin 3(a) …); experiment: SPA competition binding, displacement of 125I-rat amylin, membranes of BHK amylin 3(a)/CRE-luc cells
How it was run: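 One-site competition analysis of SPA counts yielded IC₅₀ as a measure of affinity. Membranes were at 35 ng/μL final; incubation was 120 min at 25° C, pH 7.4.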

rat calcitonin receptor [4] = molecular target: T3, rat calcitonin receptor (rat, UniProt P32214 25-516); experiment: SPA competition vs 125I-calcitonin, membranes (Assay VIII)
T3 construct: whole, on cells; Membranes prepared from transiently transfected BHK tk'ts 13 cells; also called rCTR; rat calcitonin (a) receptor
T3 sequence (looked up): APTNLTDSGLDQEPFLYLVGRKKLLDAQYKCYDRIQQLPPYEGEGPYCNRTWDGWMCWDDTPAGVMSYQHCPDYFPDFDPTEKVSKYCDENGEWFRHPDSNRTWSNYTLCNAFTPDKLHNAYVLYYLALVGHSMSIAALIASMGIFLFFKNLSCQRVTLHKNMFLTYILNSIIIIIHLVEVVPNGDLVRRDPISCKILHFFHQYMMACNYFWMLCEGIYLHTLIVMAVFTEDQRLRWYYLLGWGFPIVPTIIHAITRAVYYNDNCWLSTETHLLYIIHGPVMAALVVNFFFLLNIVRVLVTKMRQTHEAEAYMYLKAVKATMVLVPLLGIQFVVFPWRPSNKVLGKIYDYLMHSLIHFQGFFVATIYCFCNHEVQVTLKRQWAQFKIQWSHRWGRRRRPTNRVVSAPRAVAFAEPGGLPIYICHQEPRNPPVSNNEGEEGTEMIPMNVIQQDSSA

rat calcitonin receptor [5] = molecular target: T3, rat calcitonin receptor; experiment: ratio of IC50 on rat calcitonin receptor to IC50 on rat amylin receptor
[6] = molecular target: T4, rat amylin receptor (rat calcitonin receptor + rat RAMP 3) (rat, UniProt P32214 25-516; Q9JJ73 23-147); experiment: SPA competition vs 125I-rat amylin, membranes (Assay VI)
T4 construct: whole, on cells; Membranes prepared from transiently transfected BHK tk'ts 13 cells; also called rAmylin-R; rat amylin 3(a) receptor
T4 sequence (looked up) 1: T3 sequence (looked up)
T4 sequence (looked up) 2: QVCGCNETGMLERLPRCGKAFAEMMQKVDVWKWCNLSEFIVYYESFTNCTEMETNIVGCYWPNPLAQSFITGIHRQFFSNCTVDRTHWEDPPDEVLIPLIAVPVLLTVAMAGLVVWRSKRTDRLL

[7] = molecular target: T5, human calcitonin receptor (human, UniProt P30988 25-474); experiment: ratio of IC50 on human calcitonin receptor to IC50 on human amylin receptor
T5 construct: whole, on cells; Membranes from stably transfected BHK cells; also called hCTR; hCT
T5 sequence (looked up): T1 sequence (looked up) 1
Procedure: The resulting pellet was resuspended, homogenized and centrifuged (20.000 rpm, 15 min) in a buffer containing 20 mM Na-HEPES and 0.1 mM EDTA (pH 7.4, buffer 2). The resulting pellet was resuspended in buffer 2 and protein concentration was measured (BCA protein Assay, Pierce). The homogenate was kept cold during the whole procedure. The membranes were kept at −80° C. until use. The assay was performed in a 384 well Optiplate (PerkinElmer) in a total volume of 40 ul. Membranes were mixed with SPA beads. Final concentration of membranes 35 ng/μL final and SPA beads was 0.05 mg/well. Test-compounds were dissolved in DMSO and further diluted in assay buffer (50 mM Hepes, pH 7.4, 1 mM CaCl2, 5 mM MgCl₂, 0.1% OA and 0.02% Tween20). […] The final mixture was incubated with shaking at 400 rpm for 120 min at 25° C. prior to centrifugation (1500 rpm, 10 min). Samples were analyzed on TopCounter™ (Packard). The IC₅₀ was calculated using (one site binding competition analysis) GraphPad Prism5 as a measure of receptor affinity.
Membranes were prepared in the following way; the cells were rinsed with PBS and incubated with Versene for approximately 5 min before harvesting. The cells were flushed with PBS and the cell-suspension was centrifuged for 5 min at 1000 rpm. Cells were homogenized (Ultrathurrax) in a buffer containing 20 mM Na-HEPES and 10 mM EDTA (pH 7.4) and centrifuged at 20.000 rpm for 15 min. The resulting pellet was resuspended, homogenized and centrifuged (20.000 rpm, 15 min) in a buffer containing 20 mM Na-HEPES and 0.1 mM EDTA (pH 7.4, buffer 2). The resulting pellet was resuspended in buffer 2 and protein concentration was measured (BCA protein Assay, Pierce). The homogenate was kept cold during the whole procedure. The membranes were kept at −80° C. until use. Assay was performed in a 384 well Optiplate (PerkinElmer) in a total volume of 40 ul. Membranes were mixed with SPA beads.

rat calcitonin receptor [8] = molecular target: T6, rat calcitonin receptor (rat, UniProt P32214 25-516); experiment: SPA competition with 125I-calcitonin, membranes of BHK cells with rat calcitonin receptor (Assay VIII)
T6 construct: whole, on cells; Used as membranes prepared from the transfected cells; also called rCTR; rat calcitonin (a) receptor
T6 sequence (looked up): T3 sequence (looked up)

[9] = molecular target: T7, rat amylin receptor (rat calcitonin receptor + rat RAMP 3) (rat, UniProt P32214 25-516; Q9JJ73 23-147); experiment: SPA competition with 125I-rat amylin, membranes of BHK cells with rat calcitonin receptor + rat RAMP3 (Assay VI)
T7 construct: whole, on cells; Used as membranes prepared from the transfected cells; also called rAmylin-R; rat amylin 3(a) receptor
T7 sequence (looked up) 1: T3 sequence (looked up)
T7 sequence (looked up) 2: T4 sequence (looked up) 2

B1: N^ε-[2-[2-[2-[[(4S)-4-carboxy-4-(19-carboxynonadecanoylamino)butanoyl]amino]ethoxy]ethoxy]acetyl]Lys[Arg1,Arg17,Pro21,Pro27,His35]-h-amylin (peptide)
peptide: K([AEEA-γGlu-C20 diacid])RCNTATCATQRLANFLRHSSPNFGAIPSSTNVGSHTY-NH2
modifications: disulfide 3-8; N-terminus assumed
SMILES: CC[C@H](C)[C@H](NC(=O)[C@H](C)NC(=O)CNC(=O)[C@H](Cc1ccccc1)NC(=O)[C@H](CC(N)=O)NC(=O)[C@@H]1CCCN1C(=O)[C@H](CO)NC(=O)[C@H](CO)NC(=O)[C@H](Cc1c[nH]cn1)NC(=O)[C@H](CCCNC(=N)N)NC(=O)[C@H](CC(C)C)NC(=O)[C@H](Cc1ccccc1)NC(=O)[C@H](CC(N)=O)NC(=O)[C@H](C)NC(=O)[C@H](CC(C)C)NC(=O)[C@H](CCCNC(=N)N)NC(=O)[C@H](CCC(N)=O)NC(=O)[C@@H](NC(=O)[C@H](C)NC(=O)[C@@H]1CSSC[C@H](NC(=O)[C@H](CCCNC(=N)N)NC(=O)[C@@H](N)CCCCNC(=O)COCCOCCNC(=O)CC[C@H](NC(=O)CCCCCCCCCCCCCCCCCCC(=O)O)C(=O)O)C(=O)N[C@@H](CC(N)=O)C(=O)N[C@@H]([C@@H](C)O)C(=O)N[C@@H](C)C(=O)N[C@@H]([C@@H](C)O)C(=O)N1)[C@@H](C)O)C(=O)N1CCC[C@H]1C(=O)N[C@@H](CO)C(=O)N[C@@H](CO)C(=O)N[C@H](C(=O)N[C@@H](CC(N)=O)C(=O)N[C@H](C(=O)NCC(=O)N[C@@H](CO)C(=O)N[C@@H](Cc1c[nH]cn1)C(=O)N[C@H](C(=O)N[C@@H](Cc1ccc(O)cc1)C(N)=O)[C@@H](C)O)C(C)C)[C@@H](C)O
notes: also called compound 45
Ratio hCT/hAmylin funct. [1]: 17
hAmylin-R funct. EC50 (pM) [1]: 594 pM
hCTR funct. EC50 (pM) [2]: 10100 pM
IC50 [3]: 0.552 nM

B2: N^ε1-[(4S)-4-carboxy-4-[[(4S)-4-carboxy-4-(19-carboxynonadecanoylamino)butanoyl]amino]butanoyl]-[Glu14,Arg17,Pro21,Pro27,Pro34,Glu35]-h-amylin (peptide)
peptide: K([γGlu-γGlu-C20 diacid])CNTATCATQRLAEFLRHSSPNFGAIPSSTNVGPETY-NH2
modifications: disulfide 2-7 (inferred)
IC50 (rat calcitonin receptor [4]): 16.1 nM
Ratio rCT/rAmylin binding (rat calcitonin receptor [5]): 88.5
IC50 [6]: 0.182 nM
Ratio hCT/hAmylin binding [7]: 17.6

B3: N^ε1-[2-[2-[2-[[(4S)-4-carboxy-4-(19-carboxynonadecanoylamino)butanoyl]amino]ethoxy]ethoxy]acetyl]-[Arg17,Pro21,Pro27,Arg35]-h-amylin (peptide)
peptide: K([AEEA-γGlu-C20 diacid])CNTATCATQRLANFLRHSSPNFGAIPSSTNVGSRTY-NH2
modifications: disulfide 2-7; N-terminus assumed
SMILES: CC[C@H](C)[C@H](NC(=O)[C@H](C)NC(=O)CNC(=O)[C@H](Cc1ccccc1)NC(=O)[C@H](CC(N)=O)NC(=O)[C@@H]1CCCN1C(=O)[C@H](CO)NC(=O)[C@H](CO)NC(=O)[C@H](Cc1c[nH]cn1)NC(=O)[C@H](CCCNC(=N)N)NC(=O)[C@H](CC(C)C)NC(=O)[C@H](Cc1ccccc1)NC(=O)[C@H](CC(N)=O)NC(=O)[C@H](C)NC(=O)[C@H](CC(C)C)NC(=O)[C@H](CCCNC(=N)N)NC(=O)[C@H](CCC(N)=O)NC(=O)[C@@H](NC(=O)[C@H](C)NC(=O)[C@@H]1CSSC[C@H](NC(=O)[C@@H](N)CCCCNC(=O)COCCOCCNC(=O)CC[C@H](NC(=O)CCCCCCCCCCCCCCCCCCC(=O)O)C(=O)O)C(=O)N[C@@H](CC(N)=O)C(=O)N[C@@H]([C@@H](C)O)C(=O)N[C@@H](C)C(=O)N[C@@H]([C@@H](C)O)C(=O)N1)[C@@H](C)O)C(=O)N1CCC[C@H]1C(=O)N[C@@H](CO)C(=O)N[C@@H](CO)C(=O)N[C@H](C(=O)N[C@@H](CC(N)=O)C(=O)N[C@H](C(=O)NCC(=O)N[C@@H](CO)C(=O)N[C@@H](CCCNC(=N)N)C(=O)N[C@H](C(=O)N[C@@H](Cc1ccc(O)cc1)C(N)=O)[C@@H](C)O)C(C)C)[C@@H](C)O
notes: Derivative of human amylin; also called compound 38
IC50 (rat calcitonin receptor [8]): 38 nM
IC50 [9]: 0.383 nM

B4: N^-1-[(4S)-4-carboxy-4-(19-carboxynonadecanoylamino)butanoyl]-Gly[Arg1,Arg17,Pro21,Pro27]-h-amylin (peptide)
peptide: {C20 diacid-γGlu}-GRCNTATCATQRLANFLRHSSPNFGAIPSSTNVGSNTY-NH2
modifications: disulfide 3-8
SMILES: CC[C@H](C)[C@H](NC(=O)[C@H](C)NC(=O)CNC(=O)[C@H](Cc1ccccc1)NC(=O)[C@H](CC(N)=O)NC(=O)[C@@H]1CCCN1C(=O)[C@H](CO)NC(=O)[C@H](CO)NC(=O)[C@H](Cc1c[nH]cn1)NC(=O)[C@H](CCCNC(=N)N)NC(=O)[C@H](CC(C)C)NC(=O)[C@H](Cc1ccccc1)NC(=O)[C@H](CC(N)=O)NC(=O)[C@H](C)NC(=O)[C@H](CC(C)C)NC(=O)[C@H](CCCNC(=N)N)NC(=O)[C@H](CCC(N)=O)NC(=O)[C@@H](NC(=O)[C@H](C)NC(=O)[C@@H]1CSSC[C@H](NC(=O)[C@H](CCCNC(=N)N)NC(=O)CNC(=O)CC[C@H](NC(=O)CCCCCCCCCCCCCCCCCCC(=O)O)C(=O)O)C(=O)N[C@@H](CC(N)=O)C(=O)N[C@@H]([C@@H](C)O)C(=O)N[C@@H](C)C(=O)N[C@@H]([C@@H](C)O)C(=O)N1)[C@@H](C)O)C(=O)N1CCC[C@H]1C(=O)N[C@@H](CO)C(=O)N[C@@H](CO)C(=O)N[C@H](C(=O)N[C@@H](CC(N)=O)C(=O)N[C@H](C(=O)NCC(=O)N[C@@H](CO)C(=O)N[C@@H](CC(N)=O)C(=O)N[C@H](C(=O)N[C@@H](Cc1ccc(O)cc1)C(N)=O)[C@@H](C)O)C(C)C)[C@@H](C)O
notes: also called compound 46
Ratio hCT/hAmylin funct. [1]: 10.2
hAmylin-R funct. EC50 (pM) [1]: 88 pM
hCTR funct. EC50 (pM) [2]: 899 pM
IC50 [3]: 0.195 nM
